Measured values published in publication PMC3482342 (Journal of molecular biology, 2011).

Biological target: T1, Full-length MukF (E. coli, UniProt P60293 1-440)
T1 sequence (looked up): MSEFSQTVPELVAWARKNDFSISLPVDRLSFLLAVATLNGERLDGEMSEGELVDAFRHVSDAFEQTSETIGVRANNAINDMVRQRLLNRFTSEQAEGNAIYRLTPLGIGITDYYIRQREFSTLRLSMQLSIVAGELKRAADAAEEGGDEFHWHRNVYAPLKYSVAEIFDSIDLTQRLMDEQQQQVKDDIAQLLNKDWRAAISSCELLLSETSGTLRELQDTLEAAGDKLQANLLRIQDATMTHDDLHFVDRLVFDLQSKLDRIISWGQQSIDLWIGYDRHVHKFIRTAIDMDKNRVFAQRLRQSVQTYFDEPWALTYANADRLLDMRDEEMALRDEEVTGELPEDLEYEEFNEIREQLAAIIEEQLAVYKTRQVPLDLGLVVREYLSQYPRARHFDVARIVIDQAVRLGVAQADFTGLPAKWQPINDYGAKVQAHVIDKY
Assay: AUC

stoichiometry N: 2 MukE per MukF
B1: MukE-DRER (MukE-D196A/R198A/E199S/R202S) (natural protein, E. coli, UniProt P22524 10-234, looked up)
chain: MPVKLAQALANPLFPALDSALRSGRHIGLDELDNHAFLMDFQEYLEEFYARYNVELIRAPEGFFYLRPRSTTLIPRSVLSELDMMVGKILCYLYLSPERLANEGIFTQQELYDELLTLADEAKLLKLVNNRSTGSDVDRQKLQEKVRSSLNRLRRLGMVWFMGHDSSKFRITESVFRFGADVRAGDAPASAQSRLIRDGEAMPIENHLQLNDETEENQPDSGEEE
